# Laboratory results published in patent US9212359B2, “Systems for induction of gene expression and protein depletion in yeast” (priority 2011, dated 2015).
# B1: NDeg-Met31p-13Myc: N-degron-tagged, 13Myc-tagged Met31p target protein (DBY12234) (protein, UniProt Q03081 1-177, looked up)
# Transcriptional regulator …: MKLAQDMNVDEIFLKQAAEAIAVISSSPTHTDPIIRELLHRIRQSSPLSAVIPAPENVLKAGEPENMARGLIRIPETQTKRTGGNNHSKEGAQLYSCAKCQLKFSRSSDLRRHEKVHSLVLPHICSNCGKGFARKDALKRHSNTLTCQRNRKKLSEGSDVDVDELIKDAIKNGTGLL
# modifications: N-degron tag, 13Myc tag
# B2: Met31p-13Myc: 13Myc-tagged Met31p lacking NDeg (DBY12235), control protein (protein, UniProt Q03081 1-177, looked up)
# Transcriptional regulator …: B1 Transcriptional regulator …
# modifications: C-terminal 13Myc tag
# notes: 13Myc-tagged Met31p lacking NDeg (DBY12235), control protein
# B3: NDeg-Met4p-13Myc: N-degron-tagged, 13Myc-tagged Met4p target protein (DBY12055) (protein, UniProt P32389 1-672, looked up)
# Transcriptional activator of …: MKQEQSHEGDSYSTEFINLFGKDTATHPSSNNGANNNGMGSTNSLDQFVATASSSSSLVTSSENRRPLIGDVTNRGNTNLYDHAVTPEILLEQLAYVDNFIPSLDNEFSNVDWNVNTTHNNANNNGADTFSSINANPFDLDEQLAIELSAFADDSFIFPDEDKPSNNNNNSNNGNDDHSNHDVLHEDPSTNNRQRNPHFLTQRRNTFLTSQYDQSKSRFSSKNKRNGNNGETNNFGDNMQNNHPFEPNFMGSPSQFPADATNMTSIDHGGFTNVDITSTENNTTGDNGVDALSNLLHRTTHTPNRSSPLSNVTSAQNSSSQQRKHSESKVDSNSDNNSSNKAPNITVPDYSIIPTSVLVTLLPRVNVPNGAYNSLISAGFDNDQIDAIAAIMAYHHQKKIRENNSNNNKNINTNDSQEAPILKNINELLSVLIPPSPAETRGPTTLSTSPSFNEHGVVAEASFLSSILELGIKHPKSNNIHNQRQPSRNDHKISRESDGNNGNDNVHHNNAVIKSSTTRGDEIAKIRSEPTLNASSSDHKENSLKRSHSGDLKNKKVPVDRKYSDNEDDEYDDADLHGFEKKQLIKKELGDDDEDLLIQSKKSHQKKKLKEKELESSIHELTEIAASLQKRIHTLETENKLLKNLVLSSGETEGIKKAESLKKQIFEKVQKE
# modifications: N-degron tag; 13Myc tag
# B4: Met4p-13Myc: 13Myc-tagged Met4p lacking NDeg (DBY11440), control protein (protein, UniProt P32389 1-672, looked up)
# Transcriptional activator of …: B3 Transcriptional activator of …
# modifications: 13Myc tag
# notes: 13Myc-tagged Met4p lacking NDeg (DBY11440), control protein
# Tested on: TEV protease / N-end rule degradation
# Experiment: Western blot of N-degron-tagged proteins after GEV-mediated induction of TEV
# Format: cell-based, S. cerevisiae
# Settings: 1 μM β-estradiol, YPD; for half-life of NDeg-tagged protein: power-law fit of 10, 20 and 40-minute timepoints
# Method: Total protein was extracted from ˜10 mL aliquots of cultures at ˜2×10^7 cells/mL using YPX extraction kit (Protein Discovery, Knoxville, Tenn.) with the addition of protease inhibitors (Roche tablets, cat#11836170001). Proteins were separated using Invitrogen NuPage precast 10% Bis-Tris gels and transferred to Invitrolon PVDF (Invitrogen cat#LC2005) according to the manufacturer's protocols. Primary antibody for the β-Myc epitope was mouse anti-human c-Myc from BD Pharmingen (cat#51-1485GR). Secondary antibody was goat anti-mouse-HRP (cat#115-035-003) from Jackson ImmunoResearch. Primary antibody dilution was typically 1/1000 and secondary antibodies were used at 1/10,000 dilution. Immunoreactive peptides were detected by incubation with ECL^+ detection reagent (Amersham/GE RPN2132) and imaging on HyBlot CL autoradiography film (Denville Scientific, Metuchen, N.J.). As a loading control, blots were probed with mouse monoclonal anti-β-Actin antibody loading control cat#ab8224, Abcam, Cambridge, Mass. ( 1/600 or 1/2000). Secondary antibody was as above, goat anti-mouse-HRP. Protein levels were quantified with the “Gel Analysis” feature in ImageJ and normalized to the t=0 levels in each time course.
# MET4 and MET31 genes were chosen for use in a proof of principle experiment to exemplify the protein depletion method (FIG. 8). We constructed Ndeg-modified MET4 and MET31 alleles in separate strains containing GEV and PGAL1-TEV (see Materials and Methods). Cells were grown in rich medium (YPD) and treated with 1 μMβ-estradiol at ˜2×10^7 cells/mL. Western blots were performed on proteins extracted at several time points after induction (FIG. 9). Treatment of cultures with 1 μM β-estradiol had no effect on levels of Met4p-13Myc or Met31p-13Myc lacking NDeg (FIG. 9A, 9B).
Molecule,half-life of NDeg-tagged protein [min],effect of β-estradiol treatment on levels of protein lacking NDeg
B1,13.75,–
B2,–,no effect
B3,16,–
B4,–,no effect
